Reference: patent US11224662B2, “Methods and therapeutics comprising ligand-targeted ELPs” (priority 2012, dated 2022)

B1: G(VPGSG)48(VPGIG)48Y (SEQ ID. NO: 10) (protein)
chain: GVPGSGVPGSGVPGSGVPGSGVPGSGVPGSGVPGSGVPGSGVPGSGVPGSGVPGSGVPGSGVPGSGVPGSGVPGSGVPGSGVPGSGVPGSGVPGSGVPGSGVPGSGVPGSGVPGSGVPGSGVPGSGVPGSGVPGSGVPGSGVPGSGVPGSGVPGSGVPGSGVPGSGVPGSGVPGSGVPGSGVPGSGVPGSGVPGSGVPGSGVPGSGVPGSGVPGSGVPGSGVPGSGVPGSGVPGSGVPGSGVPGIGVPGIGVPGIGVPGIGVPGIGVPGIGVPGIGVPGIGVPGIGVPGIGVPGIGVPGIGVPGIGVPGIGVPGIGVPGIGVPGIGVPGIGVPGIGVPGIGVPGIGVPGIGVPGIGVPGIGVPGIGVPGIGVPGIGVPGIGVPGIGVPGIGVPGIGVPGIGVPGIGVPGIGVPGIGVPGIGVPGIGVPGIGVPGIGVPGIGVPGIGVPGIGVPGIGVPGIGVPGIGVPGIGVPGIGVPGIGY
B2: (VPGSG)96 (SEQ ID. NO: 13) (protein)
chain: VPGSGVPGSGVPGSGVPGSGVPGSGVPGSGVPGSGVPGSGVPGSGVPGSGVPGSGVPGSGVPGSGVPGSGVPGSGVPGSGVPGSGVPGSGVPGSGVPGSGVPGSGVPGSGVPGSGVPGSGVPGSGVPGSGVPGSGVPGSGVPGSGVPGSGVPGSGVPGSGVPGSGVPGSGVPGSGVPGSGVPGSGVPGSGVPGSGVPGSGVPGSGVPGSGVPGSGVPGSGVPGSGVPGSGVPGSGVPGSGVPGSGVPGSGVPGSGVPGSGVPGSGVPGSGVPGSGVPGSGVPGSGVPGSGVPGSGVPGSGVPGSGVPGSGVPGSGVPGSGVPGSGVPGSGVPGSGVPGSGVPGSGVPGSGVPGSGVPGSGVPGSGVPGSGVPGSGVPGSGVPGSGVPGSGVPGSGVPGSGVPGSGVPGSGVPGSGVPGSGVPGSGVPGSGVPGSGVPGSGVPGSGVPGSGVPGSGVPGSGVPGSGVPGSGVPGSGVPGSG
B3: (VPGIG)96 (SEQ ID. NO: 14) (protein)
chain: VPGIGVPGIGVPGIGVPGIGVPGIGVPGIGVPGIGVPGIGVPGIGVPGIGVPGIGVPGIGVPGIGVPGIGVPGIGVPGIGVPGIGVPGIGVPGIGVPGIGVPGIGVPGIGVPGIGVPGIGVPGIGVPGIGVPGIGVPGIGVPGIGVPGIGVPGIGVPGIGVPGIGVPGIGVPGIGVPGIGVPGIGVPGIGVPGIGVPGIGVPGIGVPGIGVPGIGVPGIGVPGIGVPGIGVPGIGVPGIGVPGIGVPGIGVPGIGVPGIGVPGIGVPGIGVPGIGVPGIGVPGIGVPGIGVPGIGVPGIGVPGIGVPGIGVPGIGVPGIGVPGIGVPGIGVPGIGVPGIGVPGIGVPGIGVPGIGVPGIGVPGIGVPGIGVPGIGVPGIGVPGIGVPGIGVPGIGVPGIGVPGIGVPGIGVPGIGVPGIGVPGIGVPGIGVPGIGVPGIGVPGIGVPGIGVPGIGVPGIGVPGIGVPGIGVPGIGVPGIG
B4: knob-(VPGSG)96Y (SEQ ID. NO: 8) (protein)
chain: VPGSGVPGSGVPGSGVPGSGVPGSGVPGSGVPGSGVPGSGVPGSGVPGSGVPGSGVPGSGVPGSGVPGSGVPGSGVPGSGVPGSGVPGSGVPGSGVPGSGVPGSGVPGSGVPGSGVPGSGVPGSGVPGSGVPGSGVPGSGVPGSGVPGSGVPGSGVPGSGVPGSGVPGSGVPGSGVPGSGVPGSGVPGSGVPGSGVPGSGVPGSGVPGSGVPGSGVPGSGVPGSGVPGSGVPGSGVPGSGVPGSGVPGSGVPGSGVPGSGVPGSGVPGSGVPGSGVPGSGVPGSGVPGSGVPGSGVPGSGVPGSGVPGSGVPGSGVPGSGVPGSGVPGSGVPGSGVPGSGVPGSGVPGSGVPGSGVPGSGVPGSGVPGSGVPGSGVPGSGVPGSGVPGSGVPGSGVPGSGVPGSGVPGSGVPGSGVPGSGVPGSGVPGSGVPGSGVPGSGVPGSGVPGSGVPGSGVPGSGVPGSGVPGSGVPGSGVPGSGY
B5: knob-(VPGIG)96Y (SEQ ID. NO: 9) (protein)
chain: VPGIGVPGIGVPGIGVPGIGVPGIGVPGIGVPGIGVPGIGVPGIGVPGIGVPGIGVPGIGVPGIGVPGIGVPGIGVPGIGVPGIGVPGIGVPGIGVPGIGVPGIGVPGIGVPGIGVPGIGVPGIGVPGIGVPGIGVPGIGVPGIGVPGIGVPGIGVPGIGVPGIGVPGIGVPGIGVPGIGVPGIGVPGIGVPGIGVPGIGVPGIGVPGIGVPGIGVPGIGVPGIGVPGIGVPGIGVPGIGVPGIGVPGIGVPGIGVPGIGVPGIGVPGIGVPGIGVPGIGVPGIGVPGIGVPGIGVPGIGVPGIGVPGIGVPGIGVPGIGVPGIGVPGIGVPGIGVPGIGVPGIGVPGIGVPGIGVPGIGVPGIGVPGIGVPGIGVPGIGVPGIGVPGIGVPGIGVPGIGVPGIGVPGIGVPGIGVPGIGVPGIGVPGIGVPGIGVPGIGVPGIGVPGIGVPGIGVPGIGVPGIGVPGIGVPGIGVPGIGY

Columns and labels:
[1] = Dynamic light scattering of ELP nanoparticles; type: physicochemical; conditions: for formation of nanoparticles: ELP without knob, S96 and I96 data not shown; for Hydrodynamic radius (nm) at 37° C.: 25 μM in PBS
Protocol: (§1) To explore the temperature-dependent phase behavior of the ELPs, optical density and hydrodynamic radius were observed over a range of temperatures. Knob-S96, S48148 and knob-S48148 were diluted to 25 μM in PBS on ice and the absorbance at 350 nm was monitored with a DU800 UV-Vis spectrophotometer (Beckman Coulter, Brea, Calif.) at a temperature gradient of 1° C./minute. […] Then 90 μL sample of was transferred into a 384 well microplate and covered with 20 μL mineral oil. The microplate and mineral oil were pre-chilled at 4° C. at least for 1 hour. The microplate was centrifuged at 4° C. to remove air bubbles from samples before and after addition of mineral oil. Then the sample was measured in a DynaPro plate reader (Wyatt Inc., Santa Barbara, Calif.) at temperature intervals of 1° C. The resulting hydrodynamic radii were collected and analyzed by Dynamics (Wyatt Inc., Santa Barbara, Calif.).

[2] = system: transformed mouse hepatocytes; experiment: Live cell uptake of rhodamine-conjugated ELP/knob-ELP in hepatocytes; type: cell-based; conditions: 10 μM rhodamine-labeled, 30 minutes at 37° C., confocal microscopy, LYSOTRACKER green
Protocol: To track cellular uptake, the ELPs S48148 and knob-S48148 were conjugated with a detectable label, NHS-Rhodamine (Thermo Fisher Scientific Inc, Rockford, Ill.) via covalent modification of primary amines at the amino end of the peptide. For S48148, the only available amine is at the amino terminus; however, knob-S48148 has an additional 11 lysine residues that may be sites of modification. The conjugation was performed in 100 mM borate buffer for 2 hours at 4° C., and the conjugated ELP was separated by size exclusion chromatography on a PD10 desalting column (GE Healthcare, Piscataway, N.J.).
To observe uptake into mouse hepatocytes, cells were cultured on 35 mm glass coverslip-bottomed dishes with medium [(DMEM (4.5 g/L) containing 10% fetal bovine serum, g/ml insulin, and 0.02 [μg/ml epidermal growth factor]. Uptake studies were conducted when hepatocytes reached 70% confluence. After washing with warm fresh medium, hepatocytes were cultured in medium containing 10 μM of either S48148 or knob-S48148 conjugated with rhodamine, and 75 nM LYSOTRACKER® green. After 30 minutes incubation at 37° C., the cells were rinsed with warm fresh medium to remove the free knob-ELP/ELP in the medium. Next cells were incubated with 75 nM LYSOTRACKER® green in a 37° C. incubation chamber. […]

[3] = Temperature-dependent optical density (turbidity) of ELP fusion peptides; type: physicochemical; conditions: for Critical aggregation temperature: optical density at 350 nm by UV-Vis spectrophotometer; for phase transition behaviour in optical density over temperature gradient: monoblock knob-ELPs, single increase in optical density
Protocol: as §1

Molecule	formation of nanoparticles [1]	Hydrodynamic radius (nm) at 37° C. ([1]; dynamic light scattering) [nm]	Critical aggregation temperature ([3]; 25 μM in PBS) [°C]	phase transition behaviour in optical density over temperature gradient [3]	further results
B1	form nanoparticles at physiological temperatures	23.7	26.5	–	size by dynamic light scattering (BSA; unimers of the ELPs) ([1]; BSA stable from 10 to 37° C., ELPs as unimers below assembly temperature): around 4 nm; critical nanoparticle temperature (CNT) ([1]; dynamic light scattering): 26.5 °C; hydrodynamic diameter of nanoparticles ([1]; dynamic light scattering, self-assembled nanoparticles): around 40 nm; cellular uptake / fluorescence localisation [2]: slightly more intense fluorescence on the cell surface; Transition Temperature T1 ([3]; first phase transition, optical density, 25 μM in PBS): 26.5 °C; Transition Temperature T2 ([3]; second phase transition, optical density, 25 μM in PBS): 75 °C
B2	do not form nanoparticles	–	–	–	–
B3	do not form nanoparticles	–	–	–	–
B4	–	5.3	68.2	well above physiological conditions	–
B5	–	–	–	phase-separates near room temperature	–
